Measurements taken from PMC10593477 (Frontiers in Oncology, 2023).

Columns and labels:
[1] = molecular target: T1, Human uPAR-His recombinant protein (human, UniProt Q03405 23-305); experiment: ELISA; uPAR-His coated at 50 ng/well at 4°C overnight; 3-fold serially diluted binders 1 hour at 37°C; VH detected by anti-FLAG M2-HRP, VH-Fc or DbTE by HRP goat anti-human IgG1 Fc; conditions: both partners purified
T1 construct: also called recombinant human uPAR; CD87; source: bought: R&D system

[2] = molecular target: T2, recombinant uPAR-Biotin (human, UniProt Q03405 23-305, biotin); experiment: BLI; BLItz; streptavidin biosensors coated with 16.7 μg/mL recombinant uPAR-Biotin; 400nM, 200nM and 100nM of VH, VH-Fc, DbTE, association 2 min; dissociation in DPBS 4 min; conditions: both partners purified
T2 construct: May be one of the bought proteins (uPAR-His or uPAR-Fc) after biotinylation

[3] = molecular target: the molecule itself; experiment: SEC; Superdex 200 Increase 10/300 GL; 200 μg of filtered antibody; DPBS, 0.5 mL/min; size from molecular weight calibration curves

T2 sequence (Q03405 23-305): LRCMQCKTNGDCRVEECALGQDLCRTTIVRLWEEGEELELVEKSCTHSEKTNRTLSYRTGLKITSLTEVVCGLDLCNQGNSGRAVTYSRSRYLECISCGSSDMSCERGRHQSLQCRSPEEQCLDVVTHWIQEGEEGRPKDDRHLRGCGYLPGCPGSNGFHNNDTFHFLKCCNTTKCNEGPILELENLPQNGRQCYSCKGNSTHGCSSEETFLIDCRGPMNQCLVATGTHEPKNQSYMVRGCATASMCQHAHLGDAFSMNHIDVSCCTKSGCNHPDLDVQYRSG
T1 sequence (Q03405 23-305): as above

EC50 [1] [nM] | Kd [2] [nM] | koff [2] [s⁻¹] | kon [2] [M⁻¹ s⁻¹] | Binder | stoichiometry N [3]
34.2 ± 3.5 | 1.7 | 3.6e-05 | 21000 | VH 115 (VHH, Human single VH domain antibody (not a camelid VHH); source: E.coli TopF expression system, purified on Ni-NTA columns) VHH: EVQLVESGGGLVQPGGSLRLSCKGSGFTFGDYAIGWVRQAPGQRLEWIGWINTNSGSPKYAQGFTGRFTISRDNSKNTLYLQMNSLRAEDTAVYYCATDVVVPWGQGSQVTVSS | 2
6.6 ± 0.2 | 71.1 | 0.0024 | 33000 | VH-Fc 115 (Fc fusion, human, VH cloned into the pcDNA-IgG1 Fc vector; source: Expi293, transiently transfected, purified by protein A resin; not shown: Fc (human IgG1), C-terminal, kept) VH: EVQLVESGGGLVQPGGSLRLSCKGSGFTFGDYAIGWVRQAPGQRLEWIGWINTNSGSPKYAQGFTGRFTISRDNSKNTLYLQMNSLRAEDTAVYYCATDVVVPWGQGSQVTVSS | 2
12.1 ± 0.8 | 17.1 | 0.0014 | 79000 | VH 3 (VHH, Human single VH domain antibody (not a camelid VHH); Monomeric by SEC; also called clone 3; anti-uPAR VH 3; source: E.coli TopF expression system, purified on Ni-NTA columns) VHH: EVQLVESGGGLVQPGGSLRLSCAASGFTFSRYWMSWVRQAPGKALEWIGEINHSGSTNYNPSLKSLVTISRDNSKNTLYLQMNSLRAEDTATYYCARSLVPALSYYYYYGMDVWGQGTTVTVSS | 
64.3 ± 2.3 | 9.6 | 0.0012 | 120000 | VH-Fc 3 (Fc fusion, human, VH 3 domain, as m1; VH cloned into the pcDNA-IgG1 Fc vector; source: Expi293, transiently transfected, purified by protein A resin; not shown: Fc (human IgG1), C-terminal, kept) VH: EVQLVESGGGLVQPGGSLRLSCAASGFTFSRYWMSWVRQAPGKALEWIGEINHSGSTNYNPSLKSLVTISRDNSKNTLYLQMNSLRAEDTATYYCARSLVPALSYYYYYGMDVWGQGTTVTVSS | 
